According to patent US20250049896A1 (Regeneron, published 2025):

Biological target: T1, Hmm-hTFRC (REGN2431), monomeric human transferrin receptor ectodomain with N-terminal hexahistidine-myc-myc … (human, UniProt P02786 89-760)
T1 construct: also called hmm.hTfR(C89-F763); His-myc-myc-hTFRC ecto
Test: blocking ELISA, supernatant; Hmm-hTFRC binding to immobilized human holo-Tf
Method: In the blocking assay, the anti-human Transferrin goat IgG polyclonal antibody (anti-hTf pAb) was passively absorbed at a concentration of 2 micrograms/mL in PBS on a 96-well microtiter plate overnight at 4° C. […] To the same plate, human holo-Tf was then added at a concentration of 1 micrograms/mL in PBS+0.5% BSA for 2 hours at room temperature. […] After a 1-hour incubation, the mixtures were transferred to the human holo-Tf microtiter plates. […] The plates were developed using TMB substrate solution according to the manufacturer's recommended procedure and absorbance at 450 nm was measured on a Victor™ Multilabel Plate Reader.
The ability of the anti-TfR antibody to block human TFRC binding to human holo-Tf was evaluated using an ELISA-based blocking assay.

T1 sequence (P02786 other isoform, or with tags, fused parts or gaps): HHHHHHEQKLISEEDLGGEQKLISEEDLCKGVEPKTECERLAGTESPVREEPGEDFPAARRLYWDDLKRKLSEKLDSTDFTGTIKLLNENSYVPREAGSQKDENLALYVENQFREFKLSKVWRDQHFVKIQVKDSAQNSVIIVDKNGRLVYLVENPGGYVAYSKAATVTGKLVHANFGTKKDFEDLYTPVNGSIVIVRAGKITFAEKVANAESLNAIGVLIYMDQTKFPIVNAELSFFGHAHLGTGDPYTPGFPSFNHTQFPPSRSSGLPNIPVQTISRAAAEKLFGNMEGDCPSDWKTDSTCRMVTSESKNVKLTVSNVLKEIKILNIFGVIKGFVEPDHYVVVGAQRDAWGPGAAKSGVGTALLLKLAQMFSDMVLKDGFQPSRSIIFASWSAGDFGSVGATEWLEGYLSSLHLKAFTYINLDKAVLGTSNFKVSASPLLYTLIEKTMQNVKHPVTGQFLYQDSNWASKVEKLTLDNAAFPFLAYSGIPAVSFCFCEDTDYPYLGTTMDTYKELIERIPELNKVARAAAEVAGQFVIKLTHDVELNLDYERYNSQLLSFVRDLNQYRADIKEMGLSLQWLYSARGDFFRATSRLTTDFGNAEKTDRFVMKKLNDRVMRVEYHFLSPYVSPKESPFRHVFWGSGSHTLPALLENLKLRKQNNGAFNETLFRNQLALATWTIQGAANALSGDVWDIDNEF

Binder | % Blocking
12848B Fab (Fab, V domains shown, CHO supernatant) VH: EVQLVESGGGLVQPGRSLTLSCAASGFTFDNFGMHWVRQGPGKGLEWVSGLTWNSGVIGYADSVKGRFTISRDNAKNSLYLQMNSLRPEDTALYYCAKDIRNYGPFDYWGQGTLVTVSS VL: not shown | 13%
31863B scFv (VK-VH) (scFv, CHO supernatant; Vk-3xG4S-Vh) scFv: DIQMTQSPSSLSASIGDRVTITCRASQGISNYLAWYQQKPGKVPKLLIYAASTLQSGVPSRFSGSGSGTDFTLTISSLQPEDVATYYCQNHNSVPLTFGGGTKVEIKGGGGSGGGGSGGGGSEVQLVESGGGLVQPGGSLRLSCAASGFTFNSYAMTWVRQAPGKGLEWVSFIGGSTGNTYYAGSVKGRFTISSDNSKKTLYLQMNSLRAEDTAVYYCAKGGAARRMEYFQHWGQGTLVTVSS | 7%
31863B scFv (VH-VK) (scFv) EVQLVESGGGLVQPGGSLRLSCAASGFTFNSYAMTWVRQAPGKGLEWVSFIGGSTGNTYYAGSVKGRFTISSDNSKKTLYLQMNSLRAEDTAVYYCAKGGAARRMEYFQHWGQGTLVTVSSDIQMTQSPSSLSASIGDRVTITCRASQGISNYLAWYQQKPGKVPKLLIYAASTLQSGVPSRFSGSGSGTDFTLTISSLQPEDVATYYCQNHNSVPLTFGGGTKVEIK | 13%
12816B Fab (Fab, V domains shown, CHO supernatant) VH: QVQLVESGGGLVKPGGSLRLSCAASGFTFSDYYMNWIRQAPGKGLEWVSYISSSGTTIYYADSVKGRFTISRDNAKKSLYLEMNSLRAEDTAVYYCAREGYGNDYYYYGIDVWGQGTTVTVSS VL: not shown | 14%
12812B scFv (VK-VH) (scFv, CHO supernatant; Vk-3xG4S-Vh) scFv: DIQMTQSPPSVSASVGDRVTITCRASQGISSWLAWYQQKPGKAPKLLIYAASSLQSGVPSRFSGSGSGTDFTLTISSLQPEDFATYYCQQANSFPRTFGQGTKVEIKGGGGSGGGGSGGGGSQVQLVQSGAEVKKPGSSVRVSCKASRGTFSSYAISWVRQAPGQGLEWMGGIIPIFGTANYAQKFLARVTITADESTSTAYMELSSLRSEDTAVYYCAREKGWNYFDYWGQGTLVTVSS | 12%
12802B scFv (VK-VH) (scFv, CHO supernatant; Vk-3xG4S-Vh) scFv: EIVMTQSPATLSVSPGERATLSCRASQSVSINLAWYQQKPGQAPRLLIFVASTRATGIPARFSGSGSGTEFTLTISSLQSEDFATYYCQQYDIWPYTFGQGTKLEIKGGGGSGGGGSGGGGSQVQLVESGGGLVKPGGSLRLSCAASGFTFSDYFMSWIRQAPGKGLEWVSYISSTGSTINYADSVKGRFTISRDNVKNSLYLQMTSLRVEDTAVYYCTRDNWNYEYWGQGTLVTVSS | 17%
12843B Fab (Fab, V domains shown, CHO supernatant) VH: EVQLVESGGGLVQPGGSLRLSCAASGFTFNIFEMNWVRQAPGKGLEWISYISSRGTTTYYADSVRGRFTISRDNAKNSLYLQMNSLRAEDTAVYYCARDYEATIPFDFWGQGTLVTVSS VL: not shown | 10%
12847B Fab (Fab, V domains shown, CHO supernatant) VH: EVQLVESGGGLVQPGRSLRLSCAASGFTFDDYAMNWVRQAPGKGLEWVSGISWSSGSMDYADSVKGRFTISRDNAKNSLYLQMNSLRTEDTALYYCAKAREVGDYYGMDVWGQGTTVTVSS VL: not shown | 3%
12844B Fab (Fab, V domains shown, CHO supernatant) VH: EVQLVESGGSVVRPGGSLRLSCEASGFTFDDYGMSWVRQDPGKGLEWVSGINWNGDRTNYADSVKGRFIISRDNAKNSVYLQMNSLRAEDSALYHCARDQGLGVAATLDYWGQGTLVTVSS VL: not shown | 20%
12834B Fab (Fab, V domains shown, CHO supernatant) VH: QVQLVQSGAEVKKPGASVKVSCKASGYTFTSYGISWVRQAPGQGLEWMGWISVYHGNTNYAQKFQGRVTMTTDTSTSTAYMELRSLRSDDTAVYYCAREGYYDFWSGYYPFDYWGQGTLVTVSS VL: not shown | -2%
31874B scFv (VK-VH) (scFv, CHO supernatant; Vk-3xG4S-Vh) scFv: DIQMTQSPSSLSASVGDRVTITCRASQGISNYLAWYQQKPGKVPNLLIYAASTLQSGVPSRFSGSGSGTDFTLTISSLQPEDVATYYCQKYNSAPLTFGGGTKVEIKGGGGSGGGGSGGGGSEVQLVESGGGLVQPGGSLRLSCAASGFAFSSYAMTWVRQAPGKGLEWVSVISGTGGSTYYADSVKGRFTISRDNSKNTLYLQMNSLRAEDTAVYYCAKGGAARRMEYFQYWGQGTLVTVSS | -1%
31874B scFv (VH-VK) (scFv) EVQLVESGGGLVQPGGSLRLSCAASGFAFSSYAMTWVRQAPGKGLEWVSVISGTGGSTYYADSVKGRFTISRDNSKNTLYLQMNSLRAEDTAVYYCAKGGAARRMEYFQYWGQGTLVTVSSDIQMTQSPSSLSASVGDRVTITCRASQGISNYLAWYQQKPGKVPNLLIYAASTLQSGVPSRFSGSGSGTDFTLTISSLQPEDVATYYCQKYNSAPLTFGGGTKVEIK | 14%
12841B Fab (Fab, V domains shown, CHO supernatant; also called H1H12841B) VH: EVQLVESGGGLVQPGGSLRLSCAASGFTFSNYWMNWVRQAPGKGLEWVANIKEDGGKKLYVDSVKGRFTISRDNAKNSLFLQMNSLRAEDTAVYYCAREDTTLVVDYYYYGMDVWGQGTTVTVSS VL: not shown | 29%
12812B Fab (Fab, V domains shown, CHO supernatant) VH: QVQLVQSGAEVKKPGSSVRVSCKASRGTFSSYAISWVRQAPGQGLEWMGGIIPIFGTANYAQKFLARVTITADESTSTAYMELSSLRSEDTAVYYCAREKGWNYFDYWGQGTLVTVSS VL: DIQMTQSPPSVSASVGDRVTITCRASQGISSWLAWYQQKPGKAPKLLIYAASSLQSGVPSRFSGSGSGTDFTLTISSLQPEDFATYYCQQANSFPRTFGQGTKVEIKR | 14%
31863B Fab (Fab, V domains shown, CHO supernatant) VH: EVQLVESGGGLVQPGGSLRLSCAASGFTFNSYAMTWVRQAPGKGLEWVSFIGGSTGNTYYAGSVKGRFTISSDNSKKTLYLQMNSLRAEDTAVYYCAKGGAARRMEYFQHWGQGTLVTVSS VL: DIQMTQSPSSLSASIGDRVTITCRASQGISNYLAWYQQKPGKVPKLLIYAASTLQSGVPSRFSGSGSGTDFTLTISSLQPEDVATYYCQNHNSVPLTFGGGTKVEIKR | 24%
31874B Fab (Fab, V domains shown, CHO supernatant) VH: EVQLVESGGGLVQPGGSLRLSCAASGFAFSSYAMTWVRQAPGKGLEWVSVISGTGGSTYYADSVKGRFTISRDNSKNTLYLQMNSLRAEDTAVYYCAKGGAARRMEYFQYWGQGTLVTVSS VL: DIQMTQSPSSLSASVGDRVTITCRASQGISNYLAWYQQKPGKVPNLLIYAASTLQSGVPSRFSGSGSGTDFTLTISSLQPEDVATYYCQKYNSAPLTFGGGTKVEIKR | 16%
12839B Fab (Fab, V domains shown, CHO supernatant) VH: QVQLVESGGGVVQPGRSLRLSCAASGFPFSNYVMYWVRQAPGKGLEWVALIFFDGKKNYHADSVKGRFTITRDNSKNMLYLQMNSLRPEDAAVYYCAKIHCPNGVCYKGYYGMDVWGQGTTVTVSS VL: not shown | 13%
12833B Fab (Fab, V domains shown, CHO supernatant) VH: QVQLVESGGGVVQPGRSLRLSCAASGFTFSSFGMHWVRQAPGKGLEWVIFISYDGSDKYYADSVKGRFAISRDSSKNTLYLQMNSLRAEDTAVYYCAKENGILTDSYGMDVWGQGTTVTVSS VL: not shown | 64%
12808B scFv (VK-VH) (scFv, CHO supernatant; Vk-3xG4S-Vh) scFv: DIQMTQSPSSLSASVGDRVTINCRASQGIRNDLGWYQQKPGKAPKRLIYAASSLQSGVPLRFSGSGSGTEFTLTINNLQPEDFATYYCLSHNSYPWTFGQGTKVEIKGGGGSGGGGSGGGGSQLQLQESGPGLVKPSETLSLTCTVSGESISSNTYYWGWIRQPPGKGLEWIGSIDYSGTTNYNPSLKSRVTISVDTSRNHFSLRLRSVTAADTAVYYCAREWGNYGYYYGMDVWGQGTTVTVSS | 18%
12808B Fab (Fab, V domains shown, CHO supernatant) VH: QLQLQESGPGLVKPSETLSLTCTVSGESISSNTYYWGWIRQPPGKGLEWIGSIDYSGTTNYNPSLKSRVTISVDTSRNHFSLRLRSVTAADTAVYYCAREWGNYGYYYGMDVWGQGTTVTVSS VL: DIQMTQSPSSLSASVGDRVTINCRASQGIRNDLGWYQQKPGKAPKRLIYAASSLQSGVPLRFSGSGSGTEFTLTINNLQPEDFATYYCLSHNSYPWTFGQGTKVEIKR | 16%
12835B Fab (Fab, V domains shown, CHO supernatant) VH: EVQLVESGGGLIQPGGSLRLSCEASGFTFRNYEMNWVRQAPGKGLEWVSYISSSGNMKDYAESVKGRFTISRDNVKNSLQLQMNSLRVEDTAVYYCARDEFPYGMDVWGQGTTVTVSS VL: not shown | 78%
12802B Fab (Fab, V domains shown, CHO supernatant) VH: QVQLVESGGGLVKPGGSLRLSCAASGFTFSDYFMSWIRQAPGKGLEWVSYISSTGSTINYADSVKGRFTISRDNVKNSLYLQMTSLRVEDTAVYYCTRDNWNYEYWGQGTLVTVSS VL: EIVMTQSPATLSVSPGERATLSCRASQSVSINLAWYQQKPGQAPRLLIFVASTRATGIPARFSGSGSGTEFTLTISSLQSEDFATYYCQQYDIWPYTFGQGTKLEIKR | 15%
12808B scFv (VH-VK) (scFv) QLQLQESGPGLVKPSETLSLTCTVSGESISSNTYYWGWIRQPPGKGLEWIGSIDYSGTTNYNPSLKSRVTISVDTSRNHFSLRLRSVTAADTAVYYCAREWGNYGYYYGMDVWGQGTTVTVSSDIQMTQSPSSLSASVGDRVTINCRASQGIRNDLGWYQQKPGKAPKRLIYAASSLQSGVPLRFSGSGSGTEFTLTINNLQPEDFATYYCLSHNSYPWTFGQGTKVEIK | 19%
12845B Fab (Fab, V domains shown, CHO supernatant) VH: EVQLVESGGGLVQPGGSLRLSCAASGFTVSNYEMNWVRQAPGKGLEWVSYISSSTSNIYYADSVKGRFTISRDNAENSLYLQMNSLRVEDTAVYYCVRDGIVVVPVGRGYYYYGLDVWGQGTTVTVSS VL: not shown | 11%
